# Measurements reported in patent publication US7736875B2, “Dipeptidyl peptidase I crystal structure and its uses” (Prozymex A/S, priority 2000, dated 2010).
# B1: chicken cystatin: non-covalent protein inhibitor of cysteine peptidases of the cystatin family (protein, UniProt P01038 24-139, looked up)
# Cystatin: SEDRSRLLGAPVPVDENDEGLQRALQFAMAEYNRASNDKYSSRVVRVISAKRQLVSGIKYILQVEIGRTTCPKSSGDLQSCEFHDEPEMAKYTTCTFVVYSIPWLNQIKLLESKCQ
# How the values were obtained:
# DPPI transferase assay = format: biochemical, rat; conditions: FIG. 8
# Text: The rate of transfer of dipeptides from a donor peptide to the nucleophilic amino terminus of an acceptor peptide, the ratio of dipeptide transfer to hydrolysis and the stability of elongated peptide product to hydrolytic turnover are estimated in a transferase assay.
# In these reactions, X and Y are any amino acid residue with the exception of prolyl. X is preferably Phe and Y is preferably Arg or Lys and pNA is a para-nitroanilide group. H and COOH indicate unblocked peptide amino and carboxy termini, respectively. In the transferase reaction, DPPI catalyses the transpeptidation of dipeptide H-Pro-X from the peptide amide to the free amino group of residue Y. The dipeptide can not be transferred to a second H-Pro-X-NH2 molecule because of the N-terminal Pro residue. The progress of the transpeptidation reaction is monitored in the trypsin cleavage reaction, in which produced H-Pro-X-Y-pNA tripeptide is hydrolysed following the addition of trypsin endoprotease to an aliquot of reaction mixture. Trypsin hydrolyses H-Pro-X-Arg/Lys-pNA much more rapidly than H-Arg/Lys-pNA (low aminopeptidase activity) making it possible to determine the amount of tripeptide formed. The transferase reaction is essentially stopped upon addition of trypsin because the reactants are diluted 10-fold (resulting in an approximately 100-fold lower rate) and because DPPI is unstable at pH 8.3.
# The concentration of tripeptide obtained also depends on the rates of hydrolysis of the initial substrate (Hydrolysis reaction 1) and of the tripeptide (Hydrolysis reaction 2):
# The hydrolysed peptides […] and […] are not DPPI substrates and can no longer be used in peptide synthesis. Accordingly, the peptidase activity of DPPI degrades both the trypsin substrate (before trypsin is added to the reaction mixture) and one of its precursors.
# 20 μl of DPPI (1-50 U/ml) in 20 mM Tris-HCl or sodium phosphate-NaOH buffer pH 7.5 is mixed with 20 μl 20 mM dithiothreitol (DTT) and allowed to incubate for 30 min at 5-37° C., preferably 12° C. Meanwhile, 10 μl 400 mM H-Pro-X-NH2 and 10 μl 500 mM H-Y-pNA (both in 100% dimethyl formamide) and 140 μl […] Tris-HCl or sodium phosphate-NaOH buffer, pH 7.5 are mixed and incubated at the same temperature. The transferase and hydrolysis reactions are initiated by the addition of reduced and activated DPPI to the peptide mixture (same temperature). All reaction mixtures should include a minimum of 10 mM chloride.
# The progress of the reaction is followed by mixing 10 μl aliquots with 1 μM trypsin in 0.1 M Tris-HCl buffer pH 8.3 and at 5-37° C., preferably 20-37° C. A yellow colour quickly appears. After 10 min, 1000 μl of water are added and the absorbance at 405 nm is measured against an appropriate blank.
# [1] = tested on: one or more cysteine peptidases present in the eluates of the Butyl SEPHAROSE FF column; assay: Proteolytic processing of immature DPPI peptides in Butyl Sepharose FF eluate (SDS-PAGE); format: biochemical; conditions: eluate incubated at pH 4.5, 4° C.
# Experimental: DPPI eluted from the hydrofobic interaction column was in general only partially processed to the mature, active form. To complete the processing, the eluate was incubated at pH 4.5 and 4° C. for 18-40 hours to convert the immature peptides to the peptides of mature rrDPPI or rhDPPI. […] Furthermore, the rate of processing was dependent on the pH of the buffer during incubation. No conversion of the immature peptides could be observed at pH 7.0 as determined by SDS-PAGE analysis but processing was observed when incubation was performed at pH 6.5 or below. The processing proceeded at highest rate at about pH 4.5. The fully processed rhDPPI and rrDPPI were finally purified and concentrated on Q-SEPHAROSE™ FF as described above. Recombinant hDPPI was quantified using an extinction coefficient at 280 nm of 2.0.
molecule,measurement,setting,value
D274Q: rat DPPI active site mutant Asp274 to Gln274,influence of mutation on rat DPPI transferase activity,DPPI transferase assay; versus wild type rat DPPI,no favourable influence
"CC(C)C[C@H](NC(=O)[C@H]1O[C@@H]1C(=O)O)C(=O)NCCCCN=C(N)N [E-64, reference compound]",proteolytic processing of the immature peptides to mature rrDPPI or rhDPPI,[1]; addition of 1 μM E-64,completely blocked
N226S229:Q226N229: rat DPPI active site double mutant Asn226:Ser229 to Gln226:Asn229,stability of the produced tripeptide product in presence of the variant,DPPI transferase assay,much more stable
same,transferase activity versus hydrolytic activity (maximum level of tripeptide),DPPI transferase assay,favoured over the hydrolytic activity
same,rate of generation of the tripeptide substrate,DPPI transferase assay; compared with wild type and D274Q,nearly as fast as the other two variants
B1,proteolytic processing of the immature peptides to mature rrDPPI or rhDPPI,[1]; addition of 0.1 μM chicken cystatin,completely blocked
